Target: human muscarinic M3 receptor with C-terminal mCitrine (M3-mCit), wild type (human) (UniProt P20309)
Experiment: FRET or BRET; single-cell FRET between receptor-mCitrine and mTurq-Gγ2 of the co-expressed heterotrimer (Gαo or Gαq, Gβ1, Gγ2) in HEK293T cells permeabilized with 0.05% saponin for 2 min (GTP depletion), PTX-A co-expressed; room temperature; internal buffer pH 7.35; complex induced by 10 µM acetylcholine, its stability after wash-out quantified as area under the curve (AUC); complete dissociation by 1 µM GTPγS

Chain of UniProt P20309 (P20309 whole entry): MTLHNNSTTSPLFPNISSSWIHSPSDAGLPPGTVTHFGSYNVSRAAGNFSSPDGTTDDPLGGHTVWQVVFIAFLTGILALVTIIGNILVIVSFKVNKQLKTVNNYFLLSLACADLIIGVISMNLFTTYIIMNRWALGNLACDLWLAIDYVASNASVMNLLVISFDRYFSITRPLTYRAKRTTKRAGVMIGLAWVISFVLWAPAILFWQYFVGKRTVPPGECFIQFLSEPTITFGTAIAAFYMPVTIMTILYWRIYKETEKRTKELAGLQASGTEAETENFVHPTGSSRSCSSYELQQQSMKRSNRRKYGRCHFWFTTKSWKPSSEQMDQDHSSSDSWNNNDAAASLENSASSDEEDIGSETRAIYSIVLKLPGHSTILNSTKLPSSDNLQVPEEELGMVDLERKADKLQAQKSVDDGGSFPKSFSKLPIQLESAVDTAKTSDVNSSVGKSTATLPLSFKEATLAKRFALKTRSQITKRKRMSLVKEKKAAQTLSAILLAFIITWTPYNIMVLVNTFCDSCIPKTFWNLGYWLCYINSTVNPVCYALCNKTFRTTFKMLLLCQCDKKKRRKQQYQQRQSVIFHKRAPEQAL

| AUC (area under the FRET curve after agonist wash-out) [a.u.] | Substance |
| --- | --- |
| 106 | Gq heterotrimer: Gαq, Gβ1-wt and mTurq-Gγ2 (from UniProt P50148 1-359; P62873 1-340; P59768 1-71) (complex; other documents disagree on this pair) |
| 30 | Go heterotrimer: PTX-insensitive Gαo, Gβ1-wt and mTurq-Gγ2 (from UniProt P09471 1-354; P62873 1-340; P59768 1-71) (complex) |
